The values that follow come from paper PMC4245848, “The Aspergillus nidulans Zn(II)2Cys6 transcription factor AN5673/RhaR mediates L-rhamnose utilization and the production of α-L-rhamnosidases”.

Series [1] has as its target T1, His6::RhaR (1-159*) (Aspergillus nidulans (cDNA from strain AR198)) (UniProt A0A0A1I536).
T1 sequence: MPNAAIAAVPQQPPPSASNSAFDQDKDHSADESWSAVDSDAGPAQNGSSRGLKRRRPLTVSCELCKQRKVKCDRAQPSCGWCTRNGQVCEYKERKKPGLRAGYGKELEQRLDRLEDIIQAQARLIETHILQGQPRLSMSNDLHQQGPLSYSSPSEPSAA
The experiment in a line: EMSA. The conditions noted are these: 25 mM HEPES pH 7.9, 50 mM KCl, 5 mM MgCl2, 1 mM DTT, 0.1 mM EDTA, 1 ug salmon sperm DNA, 20 ul, 4 C 30 min; 5-8% native PAGE in 0.5x TBE at 4 C, ethidium …. A general note: In EMSA bound probe runs differently from free probe, usually more slowly.

For the next series, the target named is T2, His6::RhaR (1-159*) (Aspergillus nidulans (cDNA from strain …, UniProt A0A0A1I536)).
T2 sequence: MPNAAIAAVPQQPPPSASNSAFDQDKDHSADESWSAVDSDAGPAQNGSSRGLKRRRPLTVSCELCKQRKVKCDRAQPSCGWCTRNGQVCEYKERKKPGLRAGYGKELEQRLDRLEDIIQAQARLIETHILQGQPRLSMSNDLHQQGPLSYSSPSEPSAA
The series is described as follows: EMSA; 25 mM HEPES pH 7.9, 50 mM KCl, 5 mM MgCl2, 1 mM DTT, 0.1 mM EDTA, 1 ug salmon sperm DNA, 20 ul, 4 C 30 min; 5-8% native PAGE in 0.5x TBE at 4 C, ethidium bromide. To be noted: protein: recombinant; tags: N-terminal His6 (pQE-80L); chain copies: 2; blunt.

With “AGATCTTCTCTGGGGAAGATCGACCGACCTGGTCCTGCAGAGCTCCAAGGCTTCCTCTCAGAAAGCCGATTAGTAGAAGCGGAGTCAAAGCAGGGTCAAGACGGACAATTAGAAGCCATGAATGGCGGATCCCAGCCCATGATCGCATACTGTGATCCAAAATCGACATAACTAAGTCACTTCCCTTCGCTTGTATCTGCCCAGCCATCCAACAACTCTA (double strand) [rhaAp 219 bp mut1]”, in series [1], the binding entry is listed as “binds more weakly”.

B1: 35-mer wild type (dsDNA)
DNA 1: AGATCTTCTCGGGGGAAGATCGACCGACCTGGTCC
DNA 2: GGACCAGGTCGGTCGATCTTCCCCCGAGAAGATCT
In the case of B1, the binding result in the series with His6::RhaR (1-159*) was “binds”.

B2: 35-mer mut1 mut2 (dsDNA)
DNA 1: AGATCTTCTCTGGGGAAGATCGACAGACCTGGTCC
DNA 2: GGACCAGGTCTGTCGATCTTCCCCAGAGAAGATCT
Take B2: the binding result with His6::RhaR (1-159*) is recorded as “no binding”.
